From US9176064B2, “Bisubstrate fluorescent probes for protein kinase CK2” (University of Tartu, priority 2012, dated 2015)
Where a SMILES comes first, the peptide text is derived from it. [ ]: non-standard residue; d: D form. The star is where a group is joined. X1 = O=C(CCCCCCCn1cnc2c(Br)c(Br)c(Br)c(Br)c21)*

Legend:
Test in all cases: Kinase panel residual activity
Assay type in all cases: biochemical
Conditions in all cases: compound at 1 micromolar
[1] = target: MST4 (Homo sapiens, UniProt Q9P289)
[2] = target: FGF-R1 (Homo sapiens, UniProt P11362)
Chain of FGF-R1 (P11362 22-822, species assumed): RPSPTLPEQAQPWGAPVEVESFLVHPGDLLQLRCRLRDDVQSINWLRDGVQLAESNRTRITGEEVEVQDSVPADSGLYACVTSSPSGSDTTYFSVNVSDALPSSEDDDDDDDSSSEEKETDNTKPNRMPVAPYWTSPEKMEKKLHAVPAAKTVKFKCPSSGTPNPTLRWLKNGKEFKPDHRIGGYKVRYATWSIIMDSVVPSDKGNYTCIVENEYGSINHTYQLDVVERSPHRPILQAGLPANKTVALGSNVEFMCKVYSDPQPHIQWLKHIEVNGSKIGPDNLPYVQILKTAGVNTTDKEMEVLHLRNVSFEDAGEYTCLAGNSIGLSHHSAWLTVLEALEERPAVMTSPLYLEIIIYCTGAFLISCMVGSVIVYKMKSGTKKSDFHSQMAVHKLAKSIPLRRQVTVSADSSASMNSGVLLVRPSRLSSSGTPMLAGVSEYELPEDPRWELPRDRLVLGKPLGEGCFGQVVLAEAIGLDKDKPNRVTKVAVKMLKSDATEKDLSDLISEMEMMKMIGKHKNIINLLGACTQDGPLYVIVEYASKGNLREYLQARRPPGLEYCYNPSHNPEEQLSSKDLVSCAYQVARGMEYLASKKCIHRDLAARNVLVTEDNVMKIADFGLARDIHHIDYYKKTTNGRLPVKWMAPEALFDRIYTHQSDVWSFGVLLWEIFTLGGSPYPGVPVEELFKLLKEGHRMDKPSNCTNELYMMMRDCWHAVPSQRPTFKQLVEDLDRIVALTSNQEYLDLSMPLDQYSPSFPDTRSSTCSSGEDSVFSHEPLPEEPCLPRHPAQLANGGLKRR

[3] = target: T1, p38d MAPK (Homo sapiens, UniProt O15264)
T1 sequence (O15264 1-365): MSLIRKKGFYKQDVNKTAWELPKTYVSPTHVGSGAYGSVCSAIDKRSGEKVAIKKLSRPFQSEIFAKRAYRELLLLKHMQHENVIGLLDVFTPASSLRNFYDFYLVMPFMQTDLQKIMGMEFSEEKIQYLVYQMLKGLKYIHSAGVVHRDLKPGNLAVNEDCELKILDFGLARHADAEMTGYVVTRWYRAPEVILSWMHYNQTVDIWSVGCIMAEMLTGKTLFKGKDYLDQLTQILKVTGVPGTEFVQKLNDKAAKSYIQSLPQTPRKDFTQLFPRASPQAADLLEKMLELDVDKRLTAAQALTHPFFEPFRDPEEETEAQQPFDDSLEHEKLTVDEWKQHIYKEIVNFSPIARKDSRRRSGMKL

[4] = target: JNK2 (Homo sapiens, UniProt P45984)
[5] = target: MKK1 (Homo sapiens, UniProt Q02750)
Chain of MKK1 (Q02750 whole entry, species assumed): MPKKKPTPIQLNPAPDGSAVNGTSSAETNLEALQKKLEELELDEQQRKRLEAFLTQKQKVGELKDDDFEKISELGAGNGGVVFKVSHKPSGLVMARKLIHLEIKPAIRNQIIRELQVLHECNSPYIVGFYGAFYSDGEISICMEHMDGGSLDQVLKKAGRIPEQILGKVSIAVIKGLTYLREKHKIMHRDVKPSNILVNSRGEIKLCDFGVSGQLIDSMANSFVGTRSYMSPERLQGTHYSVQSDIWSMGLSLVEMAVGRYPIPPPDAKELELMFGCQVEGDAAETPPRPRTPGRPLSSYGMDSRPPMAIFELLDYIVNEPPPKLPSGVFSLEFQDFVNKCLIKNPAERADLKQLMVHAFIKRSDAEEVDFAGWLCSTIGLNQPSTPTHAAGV

[6] = target: STK33 (Homo sapiens, UniProt Q9BYT3)
[7] = target: Src (Homo sapiens, UniProt P12931)
[8] = target: Lck (Homo sapiens, UniProt P06239)
[9] = target: PKCγ (Homo sapiens, UniProt P05129)
[10] = target: HIPK1 (Homo sapiens, UniProt Q86Z02)
Chain of HIPK1 (Q86Z02 whole entry, species assumed): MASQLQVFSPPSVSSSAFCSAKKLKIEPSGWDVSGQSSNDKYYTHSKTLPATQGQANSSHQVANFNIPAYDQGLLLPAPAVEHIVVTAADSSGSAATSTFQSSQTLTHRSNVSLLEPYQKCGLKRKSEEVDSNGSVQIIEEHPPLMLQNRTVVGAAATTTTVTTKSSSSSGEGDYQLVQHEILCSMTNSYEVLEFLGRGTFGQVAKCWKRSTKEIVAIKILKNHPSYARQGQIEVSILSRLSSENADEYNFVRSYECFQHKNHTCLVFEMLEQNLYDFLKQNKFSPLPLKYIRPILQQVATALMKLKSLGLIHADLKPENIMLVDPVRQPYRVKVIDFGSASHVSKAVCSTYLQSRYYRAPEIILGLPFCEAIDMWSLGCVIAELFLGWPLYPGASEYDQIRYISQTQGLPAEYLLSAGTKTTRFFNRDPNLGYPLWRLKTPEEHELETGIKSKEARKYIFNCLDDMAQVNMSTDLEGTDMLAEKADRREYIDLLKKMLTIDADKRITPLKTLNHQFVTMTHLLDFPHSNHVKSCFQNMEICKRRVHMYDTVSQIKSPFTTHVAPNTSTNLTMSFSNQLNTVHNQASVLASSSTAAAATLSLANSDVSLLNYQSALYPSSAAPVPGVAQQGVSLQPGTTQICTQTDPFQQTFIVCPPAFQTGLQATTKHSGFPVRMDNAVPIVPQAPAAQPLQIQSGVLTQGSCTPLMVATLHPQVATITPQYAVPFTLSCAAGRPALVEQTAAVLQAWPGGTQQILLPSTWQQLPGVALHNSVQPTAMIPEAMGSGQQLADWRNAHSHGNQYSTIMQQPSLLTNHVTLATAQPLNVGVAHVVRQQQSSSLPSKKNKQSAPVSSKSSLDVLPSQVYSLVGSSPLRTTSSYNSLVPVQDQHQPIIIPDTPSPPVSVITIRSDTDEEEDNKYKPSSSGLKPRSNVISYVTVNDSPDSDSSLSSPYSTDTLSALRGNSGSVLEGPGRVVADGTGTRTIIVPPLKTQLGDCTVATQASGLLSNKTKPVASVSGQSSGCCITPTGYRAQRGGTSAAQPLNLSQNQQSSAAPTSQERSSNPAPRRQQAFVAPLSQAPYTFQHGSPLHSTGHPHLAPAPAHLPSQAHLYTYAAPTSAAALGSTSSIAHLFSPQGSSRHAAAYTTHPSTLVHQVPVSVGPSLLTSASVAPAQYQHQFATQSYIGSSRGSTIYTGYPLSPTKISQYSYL

[11] = target: RSK2 (Homo sapiens, UniProt P51812)
[12] = target: NEK6 (Homo sapiens, UniProt Q9HC98)
[13] = target: ROCK 2 (Homo sapiens, UniProt O75116)
Chain of ROCK 2 (O75116 whole entry, species assumed): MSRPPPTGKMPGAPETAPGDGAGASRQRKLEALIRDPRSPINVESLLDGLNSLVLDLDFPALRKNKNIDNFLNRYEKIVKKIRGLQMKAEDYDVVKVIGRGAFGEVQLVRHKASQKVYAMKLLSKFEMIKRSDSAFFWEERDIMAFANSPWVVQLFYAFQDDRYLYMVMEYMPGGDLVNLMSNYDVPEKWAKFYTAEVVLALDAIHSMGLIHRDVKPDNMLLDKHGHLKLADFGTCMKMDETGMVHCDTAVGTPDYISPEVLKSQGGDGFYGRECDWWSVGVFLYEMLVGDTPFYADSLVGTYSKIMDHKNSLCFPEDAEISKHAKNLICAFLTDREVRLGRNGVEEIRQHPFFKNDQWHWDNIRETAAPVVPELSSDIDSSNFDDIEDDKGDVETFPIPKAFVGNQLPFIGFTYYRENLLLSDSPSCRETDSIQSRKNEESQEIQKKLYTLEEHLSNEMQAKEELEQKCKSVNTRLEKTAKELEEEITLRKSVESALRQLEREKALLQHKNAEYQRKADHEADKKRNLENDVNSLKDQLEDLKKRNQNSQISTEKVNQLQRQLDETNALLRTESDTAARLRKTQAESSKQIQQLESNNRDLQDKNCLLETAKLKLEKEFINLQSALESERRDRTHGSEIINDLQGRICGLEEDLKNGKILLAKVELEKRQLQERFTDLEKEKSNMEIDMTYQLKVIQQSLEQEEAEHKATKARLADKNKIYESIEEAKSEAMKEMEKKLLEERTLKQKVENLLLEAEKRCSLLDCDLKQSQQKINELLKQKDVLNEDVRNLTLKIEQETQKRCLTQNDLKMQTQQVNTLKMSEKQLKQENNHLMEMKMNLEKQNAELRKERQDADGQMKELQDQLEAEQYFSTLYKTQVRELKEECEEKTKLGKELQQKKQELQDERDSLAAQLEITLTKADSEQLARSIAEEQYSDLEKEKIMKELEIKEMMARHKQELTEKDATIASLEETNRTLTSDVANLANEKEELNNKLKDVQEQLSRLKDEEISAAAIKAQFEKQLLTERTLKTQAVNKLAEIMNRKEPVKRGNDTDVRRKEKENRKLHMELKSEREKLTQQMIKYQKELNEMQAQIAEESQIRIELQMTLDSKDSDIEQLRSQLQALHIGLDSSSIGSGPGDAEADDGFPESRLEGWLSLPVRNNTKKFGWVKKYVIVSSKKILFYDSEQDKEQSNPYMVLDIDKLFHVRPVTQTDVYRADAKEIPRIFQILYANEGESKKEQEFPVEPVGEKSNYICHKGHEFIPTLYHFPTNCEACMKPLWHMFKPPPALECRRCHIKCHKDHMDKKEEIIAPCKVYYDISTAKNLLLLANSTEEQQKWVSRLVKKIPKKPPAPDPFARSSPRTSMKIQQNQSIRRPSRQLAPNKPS

[14] = target: HIPK2 (Homo sapiens, UniProt Q9H2X6)
Chain of HIPK2 (Q9H2X6 whole entry, species assumed): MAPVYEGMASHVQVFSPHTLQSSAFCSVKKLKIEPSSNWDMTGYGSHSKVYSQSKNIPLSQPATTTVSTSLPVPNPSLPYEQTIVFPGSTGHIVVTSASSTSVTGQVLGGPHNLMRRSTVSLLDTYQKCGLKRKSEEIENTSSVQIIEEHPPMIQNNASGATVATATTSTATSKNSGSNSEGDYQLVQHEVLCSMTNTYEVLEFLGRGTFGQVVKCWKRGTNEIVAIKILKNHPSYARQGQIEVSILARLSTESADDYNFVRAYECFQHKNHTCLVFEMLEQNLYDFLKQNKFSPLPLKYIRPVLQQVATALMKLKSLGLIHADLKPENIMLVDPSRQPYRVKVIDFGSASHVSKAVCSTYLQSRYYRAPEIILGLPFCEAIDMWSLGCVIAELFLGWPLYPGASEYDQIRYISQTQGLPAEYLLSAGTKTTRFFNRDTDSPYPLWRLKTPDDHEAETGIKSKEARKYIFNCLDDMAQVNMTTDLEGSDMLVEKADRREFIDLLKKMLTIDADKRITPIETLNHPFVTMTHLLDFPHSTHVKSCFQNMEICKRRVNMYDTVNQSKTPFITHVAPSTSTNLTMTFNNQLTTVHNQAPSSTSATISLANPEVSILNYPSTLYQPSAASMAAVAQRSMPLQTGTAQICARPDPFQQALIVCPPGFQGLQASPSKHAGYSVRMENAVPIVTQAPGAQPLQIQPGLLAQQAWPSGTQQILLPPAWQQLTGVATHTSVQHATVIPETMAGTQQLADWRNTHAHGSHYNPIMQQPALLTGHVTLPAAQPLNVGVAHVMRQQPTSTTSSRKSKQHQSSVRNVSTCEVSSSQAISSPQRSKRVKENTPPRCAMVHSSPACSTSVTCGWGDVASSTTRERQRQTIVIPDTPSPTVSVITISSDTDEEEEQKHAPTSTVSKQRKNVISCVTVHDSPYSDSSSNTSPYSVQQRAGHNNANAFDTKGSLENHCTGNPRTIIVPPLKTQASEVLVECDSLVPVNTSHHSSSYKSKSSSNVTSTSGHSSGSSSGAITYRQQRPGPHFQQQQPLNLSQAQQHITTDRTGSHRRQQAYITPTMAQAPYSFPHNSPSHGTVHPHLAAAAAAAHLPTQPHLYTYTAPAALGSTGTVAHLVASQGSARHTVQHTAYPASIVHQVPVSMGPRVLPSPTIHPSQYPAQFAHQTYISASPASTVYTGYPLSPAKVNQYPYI

[15] = target: T2, Aurora A (Homo sapiens, UniProt O14965)
T2 sequence (O14965 1-403): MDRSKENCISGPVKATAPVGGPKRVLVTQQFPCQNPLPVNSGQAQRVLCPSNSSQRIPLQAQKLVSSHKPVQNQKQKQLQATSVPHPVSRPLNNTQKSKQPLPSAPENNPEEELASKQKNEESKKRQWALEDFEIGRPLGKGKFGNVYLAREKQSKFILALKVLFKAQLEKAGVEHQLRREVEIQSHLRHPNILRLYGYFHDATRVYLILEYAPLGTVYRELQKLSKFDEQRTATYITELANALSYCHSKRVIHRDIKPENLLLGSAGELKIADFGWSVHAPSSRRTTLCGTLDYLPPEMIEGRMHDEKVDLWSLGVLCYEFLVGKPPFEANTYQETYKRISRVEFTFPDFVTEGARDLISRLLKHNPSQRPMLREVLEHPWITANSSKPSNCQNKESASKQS

[16] = target: PLK1 (Homo sapiens, UniProt P53350)
[17] = target: SIK3 (Homo sapiens, UniProt Q9Y2K2)
[18] = target: MPSK1 (Homo sapiens, UniProt O75716)
[19] = target: T3, ULK1 (Homo sapiens, UniProt O75385)
T3 sequence (O75385 1-1050): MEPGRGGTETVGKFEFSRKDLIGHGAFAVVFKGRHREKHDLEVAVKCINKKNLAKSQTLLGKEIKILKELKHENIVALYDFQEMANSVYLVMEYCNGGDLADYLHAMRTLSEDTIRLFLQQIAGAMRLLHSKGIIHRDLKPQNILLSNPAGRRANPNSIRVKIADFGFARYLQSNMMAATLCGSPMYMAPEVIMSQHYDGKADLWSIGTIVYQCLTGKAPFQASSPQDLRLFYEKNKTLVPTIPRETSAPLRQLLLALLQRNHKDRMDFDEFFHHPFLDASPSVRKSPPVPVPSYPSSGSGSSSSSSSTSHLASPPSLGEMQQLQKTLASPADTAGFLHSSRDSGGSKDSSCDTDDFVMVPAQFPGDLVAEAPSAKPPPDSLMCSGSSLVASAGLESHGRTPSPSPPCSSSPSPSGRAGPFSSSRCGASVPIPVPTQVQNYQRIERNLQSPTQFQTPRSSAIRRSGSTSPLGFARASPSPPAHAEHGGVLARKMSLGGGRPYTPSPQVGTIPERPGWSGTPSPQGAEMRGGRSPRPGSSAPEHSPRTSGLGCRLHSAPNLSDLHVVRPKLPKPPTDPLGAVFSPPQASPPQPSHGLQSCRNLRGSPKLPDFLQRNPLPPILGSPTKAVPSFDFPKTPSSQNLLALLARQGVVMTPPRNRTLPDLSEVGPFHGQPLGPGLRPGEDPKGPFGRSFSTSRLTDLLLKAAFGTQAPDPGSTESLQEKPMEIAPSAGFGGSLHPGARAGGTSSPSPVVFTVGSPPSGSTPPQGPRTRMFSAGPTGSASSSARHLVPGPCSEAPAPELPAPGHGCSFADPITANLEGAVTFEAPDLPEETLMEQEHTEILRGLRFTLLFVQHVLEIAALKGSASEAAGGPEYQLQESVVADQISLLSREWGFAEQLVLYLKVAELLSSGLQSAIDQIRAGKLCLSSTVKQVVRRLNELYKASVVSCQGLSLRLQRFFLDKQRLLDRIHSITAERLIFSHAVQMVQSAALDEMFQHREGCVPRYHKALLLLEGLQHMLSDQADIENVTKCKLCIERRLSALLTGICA

[20] = target: p38b MAPK (Homo sapiens, UniProt Q15759)

NCCCC[C@H](NC(=O)[C@H](CC(=O)O)NC(=O)[C@H](CC(=O)O)NC(=O)[C@H](CC(=O)O)NC(=O)[C@H](CC(=O)O)NC(=O)[C@H](CC(=O)O)NC(=O)[C@@H](CC(=O)O)NC(=O)CCCCCCCn1cnc2c(Br)c(Br)c(Br)c(Br)c21)C(=O)O [TBBI-OcA-(D-Asp)-(L-Asp)5-(L-Lys)-OH] (X1-[dD]DDDDDK-OH)
remaining activity at 1 µM [1]: 114% | remaining activity at 1 µM [2]: 110% | remaining activity at 1 µM [3]: 93% | remaining activity at 1 µM [4]: 105% | remaining activity at 1 µM [5]: 101% | remaining activity at 1 µM [6]: 96% | remaining activity at 1 µM [7]: 57% | remaining activity at 1 µM [8]: 62% | remaining activity at 1 µM [9]: 106% | remaining activity at 1 µM [10]: 68% | remaining activity at 1 µM [11]: 70% | remaining activity at 1 µM [12]: 121% | remaining activity at 1 µM [13]: 91% | remaining activity at 1 µM [14]: 36% | remaining activity at 1 µM [15]: 118% | remaining activity at 1 µM [16]: 18% | remaining activity at 1 µM [17]: 74% | remaining activity at 1 µM [18]: 96% | remaining activity at 1 µM [19]: 111% | remaining activity at 1 µM [20]: 122%
